Data taken from patent publication US20240148916A1, “BIVALENT FIBROBLAST ACTIVATION PROTEIN LIGANDS FOR TARGETED DELIVERY APPLICATIONS” (priority 2021, published 2024).
*1 amine or outer side, *2 acyl side, *3 side chain or, on linkers, in order; H or OH if unused. Where a SMILES comes first, the peptide text is derived from it. The star is where a group is joined. Fluorescein(5-Mal) = O=C1OC2(c3ccc(O)cc3Oc3cc(O)ccc32)c2ccc(N3C(=O)CC(*)C3=O)cc21; X1 = N#C[C@@H]1CC(F)(F)CN1C(=O)CNC(=O)c1ccnc2c(N*)cccc12; Suc = O=C(CCC(=O)[*:2])[*:1]

Key:
[1] = molecular target: T1, hFAP (Homo sapiens, UniProt Q12884); experiment: ELISA against immobilized hFAP; assay type: binding; conditions: biotinylated hFAP immobilized on StreptaWell
T1 sequence (Q12884 1-760): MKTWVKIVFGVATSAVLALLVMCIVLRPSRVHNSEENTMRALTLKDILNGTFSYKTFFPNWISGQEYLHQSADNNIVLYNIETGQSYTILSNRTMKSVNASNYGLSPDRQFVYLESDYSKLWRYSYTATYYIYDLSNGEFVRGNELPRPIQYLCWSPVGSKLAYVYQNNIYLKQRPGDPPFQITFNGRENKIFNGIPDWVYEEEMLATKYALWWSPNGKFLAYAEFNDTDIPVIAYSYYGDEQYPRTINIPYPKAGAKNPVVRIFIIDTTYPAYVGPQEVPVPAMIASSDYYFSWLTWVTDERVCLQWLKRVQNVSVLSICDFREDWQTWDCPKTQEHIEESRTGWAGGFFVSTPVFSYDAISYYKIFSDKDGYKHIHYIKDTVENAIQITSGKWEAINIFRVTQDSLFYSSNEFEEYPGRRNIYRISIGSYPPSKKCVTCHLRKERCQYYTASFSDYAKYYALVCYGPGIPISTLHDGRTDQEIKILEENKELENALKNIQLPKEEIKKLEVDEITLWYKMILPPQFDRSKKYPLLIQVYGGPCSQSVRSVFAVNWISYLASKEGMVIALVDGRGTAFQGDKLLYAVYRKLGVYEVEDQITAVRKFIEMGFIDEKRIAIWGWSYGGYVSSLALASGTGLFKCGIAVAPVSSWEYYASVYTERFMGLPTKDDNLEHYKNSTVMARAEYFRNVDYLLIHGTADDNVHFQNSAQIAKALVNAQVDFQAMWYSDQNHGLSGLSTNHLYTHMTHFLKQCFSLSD
Method: Recombinant human FAP (1 μM, 5 mL) was biotinylated with Biotin-LC-NHS (100 eq.) by incubation at room temperature under gentle agitation in 50 mM HEPES, 100 mM NaCl buffer (pH=7.4). After 2 hours biotinylated hFAP was purified via PD-10 column and dialyzed overnight in HEPES buffer. The following day a StreptaWell™ (transparent 96-well) was incubated with biotinylated hFAP (100 nM, 100 μL/well) for 1 hour at room temperature and washed with PBS (3×, 200 μL/well). The protein was blocked by adding 4% Milk in PBS (200 μL/well, 30 min at RT) and then washed with PBS (3×, 200 μL/well). Immobilized hFAP was incubated for 30 minutes in the dark with serial dilutions of ESV6-Asp-Lys-Asp-Cys-Fluorescein and Bi-ESV6-Asp-Lys-Asp-Cys-Fluorescein (17), then washed with PBS (3×, 200 μL/well). A solution of rabbit αFITC antibody (1 μg/mL, Bio-Rad 4510-7804) in 2% Milk-PBS was added to each well (100 μL/well) and incubated for additional 30 minutes in the dark. The resulting complex was washed with PBS (3×, 200 μL/well) and incubated for additional 30 minutes of protein A-HRP (1 μg/mL in 2% Milk-PBS, 100 μL/well). Each well was washed with PBS 0.1% Tween (3×, 200 μL/well) and with PBS (3×, 200 μL/well). The substrate (TMB—3,3′,5,5′-Tetramethylbenzidine) was added (100 μL/well) and developed in the dark for 2 minutes. […] The absorbance was measured at 450 nm (ref 620-650 nm) with a TECAN spark

[2] = molecular target: T1, hFAP; experiment: Gel filtration co-elution experiment on hFAP; assay type: binding; conditions: PD-10 column, hFAP 2 μM
Method: The final solution was loaded on the column and flushed with running buffer. Fractions of the flow-through (200 μL) were collected in test tubes and the radioactivity measured with a Packard Cobra γ-counter. […] The final solution was loaded on the column and flushed with running buffer. Fractions of the flow-through (200 μL) were collected in test tubes and the radioactivity measured with a Packard Cobra γ-counter.

[3] = in vivo; design: species or system mice; conditions: mouse; for tissue to tissue ratio at 1 h / tissue to tissue ratio at 4 h / tissue to tissue ratio at 17 h / tissue to tissue ratio at 24 h: female, athymic BALB/C nu/nu, iv, 250 nmol/kg, total radioactivity
Method: Upon thawing, HT-1080.hFAP positive cells and HT-1080.wt cells were kept in culture in DMEM medium supplemented with fetal bovine serum (10%, FBS) and Antibiotic-Antimycotic (1%, AA) at 37° C. and 5% CO2. For passaging, cells were detached using Trypsin-EDTA 0.05% when reaching 90% confluence and re-seeded at a dilution of 1:4. Cells were grown to 80% confluence and detached with Trypsin-EDTA 0.05%. Cells were re-suspended in cold HBSS medium to a final concentration of 5×10^7 cells/mL. Aliquots of 5×10^6 cells (100 μL of suspension) were injected subcutaneously in the flank of female athymic BALB/C nu/nu mice (6-8 weeks of age). HT-1080.hFAP tumour cells were xenografted in the right flank and HT-1080.wt tumour cells were xenografted in the left flank as described above and allowed to grow to an average volume of 1.2±0.2 mL. […] Mice were sacrificed 1 h, 4 h, 17 h and 24 h after the injection by CO2 asphyxiation and organs extracted, weighted and radioactivity measured with a Packard Cobra γ-counter. Values are expressed as % ID/g±SD (Figure C). Food and water were given ad libitum during that period.

[4] = Tumour-to-organ ratios: HT-1080.hFAP
[5] = Tumour-to-organ ratios: Intestine

Row | SMILES | Complex formation with hFAP (co-elution) [2] | tissue to tissue ratio at 1 h ([3]; Tumour-to-organ ratios: Blood) | tissue to tissue ratio at 4 h ([3]; Tumour-to-organ ratios: Blood) | tissue to tissue ratio at 17 h ([3]; Tumour-to-organ ratios: Blood) | tissue to tissue ratio at 24 h ([3]; Tumour-to-organ ratios: Blood) | tissue to tissue ratio at 1 h [3, 4] | tissue to tissue ratio at 4 h [3, 4] | tissue to tissue ratio at 17 h [3, 4] | tissue to tissue ratio at 24 h [3, 4] | tissue to tissue ratio at 1 h ([3]; Tumour-to-organ ratios: Heart) | tissue to tissue ratio at 4 h ([3]; Tumour-to-organ ratios: Heart) | tissue to tissue ratio at 17 h ([3]; Tumour-to-organ ratios: Heart) | tissue to tissue ratio at 24 h ([3]; Tumour-to-organ ratios: Heart) | tissue to tissue ratio at 1 h [3, 5] | tissue to tissue ratio at 4 h [3, 5] | tissue to tissue ratio at 17 h [3, 5] | tissue to tissue ratio at 24 h [3, 5] | tissue to tissue ratio at 1 h ([3]; Tumour-to-organ ratios: Kidney) | tissue to tissue ratio at 4 h ([3]; Tumour-to-organ ratios: Kidney) | tissue to tissue ratio at 17 h ([3]; Tumour-to-organ ratios: Kidney) | further results
1 | N#C[C@@H]1CC(F)(F)CN1C(=O)CNC(=O)c1ccnc2c(NC(=O)CCC(=O)N[C@@H](CC(=O)O)C(=O)N[C@@H](CCCCN)C(=O)N[C@@H](CC(=O)O)C(=O)N[C@@H](CSC3CC(=O)N(c4ccc5c(c4)C(=O)OC54c5ccc(O)cc5Oc5cc(O)ccc54)C3=O)C(=O)O)cccc12 (stereo partly drawn) [ESV6-Asp-Lys-Asp-Cys-Fluorescein] ({X1-Suc}-DKDC(Fluorescein(5-Mal))-OH) |  |  |  |  |  |  |  |  |  |  |  |  |  |  |  |  |  |  |  |  | Kd [1]: 32.3 nM
2 | N#C[C@@H]1CC(F)(F)CN1C(=O)CNC(=O)c1ccnc2c(NC(=O)CCC(=O)NCCNC(=O)CCC(C(=O)O)N3CCN(CC(=O)O)CCN(CC(=O)O)CCN(CC(=O)O)CC3)cccc12 (single isomer, unassigned) [^177Lu-ESV6-DOTAGA, metal not drawn] | form a stable complex | 43.1 ± 17.2 | 113 ± 49.8 | 236 ± 190 | 855 ± 368 | 34.9 ± 2.79 | 26.8 ± 6.42 | 32.6 ± 17.4 | 13.3 ± 5.95 | 135 ± 19.8 | 208 ± 113 | 354 ± 231 | 169 ± 172 | 41 ± 41.8 | 39.8 ± 11.4 | 163 ± 94.9 | 77 ± 58.6 | 9.16 ± 0.88 | 8.25 ± 1.45 | 5.72 ± 2.04 | tissue to tissue ratio at 24 h ([3]; Tumour-to-organ ratios: Kidney): 11.9 ± 16; tissue to tissue ratio at 1 h ([3]; Tumour-to-organ ratios: Liver): 5.89 ± 0.82; tissue to tissue ratio at 4 h ([3]; Tumour-to-organ ratios: Liver): 21.6 ± 2.99; tissue to tissue ratio at 17 h ([3]; Tumour-to-organ ratios: Liver): 40.3 ± 13.3; tissue to tissue ratio at 24 h ([3]; Tumour-to-organ ratios: Liver): 30.4 ± 6.7; tissue to tissue ratio at 1 h ([3]; Tumour-to-organ ratios: Lung): 37.9 ± 2.59; tissue to tissue ratio at 4 h ([3]; Tumour-to-organ ratios: Lung): 90.3 ± 29.3; tissue to tissue ratio at 17 h ([3]; Tumour-to-organ ratios: Lung): 150 ± 88.5; tissue to tissue ratio at 24 h ([3]; Tumour-to-organ ratios: Lung): 140 ± 83; tissue to tissue ratio at 1 h ([3]; Tumour-to-organ ratios: Spleen): 109 ± 8.98; tissue to tissue ratio at 4 h ([3]; Tumour-to-organ ratios: Spleen): 169 ± 67.8; tissue to tissue ratio at 17 h ([3]; Tumour-to-organ ratios: Spleen): 200 ± 45.7; tissue to tissue ratio at 24 h ([3]; Tumour-to-organ ratios: Spleen): 103 ± 66.7; tissue to tissue ratio at 1 h ([3]; Tumour-to-organ ratios: Tail): 31.2 ± 8.39; tissue to tissue ratio at 4 h ([3]; Tumour-to-organ ratios: Tail): 10.4 ± 7.6; tissue to tissue ratio at 17 h ([3]; Tumour-to-organ ratios: Tail): 4.74 ± 5.11; tissue to tissue ratio at 24 h ([3]; Tumour-to-organ ratios: Tail): 8.77 ± 2.3
3 | N#C[C@@H]1CC(F)(F)CN1C(=O)CNC(=O)c1ccnc2c(NC(=O)CCC(=O)NCCCC[C@H](NC(=O)CCC(=O)Nc3cccc4c(C(=O)NCC(=O)N5CC(F)(F)C[C@H]5C#N)ccnc34)C(=O)NCCNC(=O)CCC(C(=O)O)N3CCN(CC(=O)O)CCN(CC(=O)O)CCN(CC(=O)O)CC3)cccc12 (stereo partly shown) [^177Lu-Bi-ESV6-DOTAGA, metal not drawn] | form a stable complex | 32.8 ± 8.97 | 62.8 ± 11.2 | 95.4 ± 19.1 | 178 ± 57.6 | 23 ± 8.09 | 25 ± 1.27 | 27.2 ± 11.3 | 29.7 ± 13.8 | 52.2 ± 10.8 | 125 ± 17.1 | 148 ± 12.9 | 201 ± 59.5 | 59.6 ± 6.48 | 82.4 ± 31.2 | 111 ± 32.1 | 104 ± 60.6 | 7.19 ± 2.29 | 8.61 ± 0.84 | 8.4 ± 1.31 | tissue to tissue ratio at 24 h ([3]; Tumour-to-organ ratios: Kidney): 9.9 ± 2.38; tissue to tissue ratio at 1 h ([3]; Tumour-to-organ ratios: Liver): 18.8 ± 5.31; tissue to tissue ratio at 4 h ([3]; Tumour-to-organ ratios: Liver): 29.9 ± 4.12; tissue to tissue ratio at 17 h ([3]; Tumour-to-organ ratios: Liver): 27.9 ± 2.25; tissue to tissue ratio at 24 h ([3]; Tumour-to-organ ratios: Liver): 30.6 ± 8; tissue to tissue ratio at 1 h ([3]; Tumour-to-organ ratios: Lung): 19.5 ± 4.09; tissue to tissue ratio at 4 h ([3]; Tumour-to-organ ratios: Lung): 65.5 ± 10.5; tissue to tissue ratio at 17 h ([3]; Tumour-to-organ ratios: Lung): 124 ± 74.7; tissue to tissue ratio at 24 h ([3]; Tumour-to-organ ratios: Lung): 98.7 ± 18.9; tissue to tissue ratio at 1 h ([3]; Tumour-to-organ ratios: Spleen): 42.1 ± 17.7; tissue to tissue ratio at 4 h ([3]; Tumour-to-organ ratios: Spleen): 73.8 ± 10.3; tissue to tissue ratio at 17 h ([3]; Tumour-to-organ ratios: Spleen): 68.2 ± 11.7; tissue to tissue ratio at 24 h ([3]; Tumour-to-organ ratios: Spleen): 93.6 ± 64.5; tissue to tissue ratio at 1 h ([3]; Tumour-to-organ ratios: Tail): 10.4 ± 1.72; tissue to tissue ratio at 4 h ([3]; Tumour-to-organ ratios: Tail): 9.68 ± 4.14; tissue to tissue ratio at 17 h ([3]; Tumour-to-organ ratios: Tail): 14 ± 8.08; tissue to tissue ratio at 24 h ([3]; Tumour-to-organ ratios: Tail): 15.5 ± 7.98; Kidney uptake [3]: transient and becomes negligible 24 hours after injection
